# Source: patent US20020132976A1, “Immunogenic peptides derived from prostate-specific antigen (PSA) and uses thereof” (priority 2000, published 2002)
# Tests used:
# [1] = target: membrane-bound HLA-A0201 molecule on T2 cells (human); assay: T2 cell HLA-A0201 stabilisation, 125.0 µM peptide, BB7.2 staining, flow cytometry; settings: remark: other sources report otherwise
# [2] = target: membrane-bound HLA-A0201 molecule on T2 cells (human); assay: T2 cell HLA-A0201 stabilisation, 125.0 µM peptide, BB7.2 staining, flow cytometry; analysis did not include the 3 hr de-stabilization step; settings: remark: other sources report otherwise
Binder,Fluorescence Index (FI) [1],Fluorescence Index (FI) [2]
KLQCVDLHV [CLP-316],2.7,
PLYDMSLLK [CLP-320],,0.2
